Measurements from the DeepSol protein solubility set.

Experiment: soluble on expression in E. coli; label from the status in PepcDB or PDB records

| Sequence | soluble on expression in E. coli |
| --- | --- |
| MSLKQEKERILKLVEEGKLTAQEALTLIEKLDSDYKEKEEKITALSVHVHDEEEPFTTAKKESGKPSLGAKLFDWIDSAVKKVKEVDLDLNFGHAYDVQHIFQFKDTDFSSVELQIANGSVNIVPWEDDDIRAECQAKVYRADSQDAARHAFLQHIECEIKGNKFFIRTEKKTMKTNVTLYIPQKEYDKIRVKLFNGPVRGEHLHVKEFSAKTTNGVLSFSYLTAEKAIAETANGQIKLASHSCGTIEAETINGLIDLRGKSESIDVQSFNGNIAINVTESDCRSIYAKTTTGNVELAIPDDLAVKAELKSNLGTLSHELMDVEMLKEKNDTIQKEMMFTSNQAHDQNITVFSESLTGAIKLKYSQREGGSHHHHHH | soluble |
| MSLKQFKSIINTSQDFEKRIEKIKKEVINDPDVKQFLEAHRAELTNAMIDEDLNVLQEYKDQQKHYDGHKFADCPNFVKGHVPELYVDNNRIKIRYLQCPCKIKYDEERFEAELITSHHMQRDTLNAKLKDIYMNHRDRLDVAMAADDICTAITNGEQVKGLYLYGPFGTGKSFILGAIANQLKSKKVRSTIIYLPEFIRTLKGGFKDGSFEKKLHRVREANILMLDDIGAEEVTPWVRDEVIGPLLHYRMVHELPTFFSSNFDYSELEHHLAMTRDGEEKTKAARIIERVKSLSTPYFLSGENFRNNEGHHHHHH | soluble |
| MSLKQKSVPMRHGTIYLYGLHSVHAALKNPKRVFEHLYITPNALKRLNIPESDLPCPITLCLPKQLDSFVGNDAVHQGIVLETEPLKPCQLSELTNTDLVIVMDQITDPHNVGAIMRSAVAFKAEALITTYRHSPQESGVLAKAASGALEMIHYITVQNLAETLQELHKAGFISFGLDSEGNHPLETTLTGEKIALVLGAEGKGLRKKTRENVCALTRLDMPGNIKSLNVSNAATIALYAAHKYLRGEGHHHHHH | soluble |
| MSLKQYKILLIVADGLGDRPVSKLNGLTPLEAANKPAITDLLKNSMIGLMDPISPGIIPGSDTSHLSIFGLDPHVYYRGRGAFEALGAGATLSHGDVAFRGNFATVNNDLVVVDRRAGRKLEEGEQLVKELNEKIKEINDVKIKFYKGTEHRIAVVLSGKGISDKVSDTDPHHEGLKVLESKPLEDSNEAIRTAEIINILTRKVFDVLNSSEINKRRIEQGEKPANIVLLRGAAHYVKLPPFSSYTKLKAAAVSATALIKGICRELGMNVITPSGATGGIDTNYNAKAKAAIELLKENDFVFLHIKATDAASHDGLVEEKVKAIERIDRVIGAIIDNIGRDNLILMFTGDHVTPVEIKEHTGDPVPVLLYVPYPIINDNVGDFNEKEARKGSLRIRGLDVTNILLNYSNRAEKYGSEGHHHHHH | soluble |
| MSLKRIAIILLTLTSILFVQHVPEGLAKASNELSLEEKYEQRLTLYEKMEAITNVPWYYLAAVDTYERGLRRAQKDRPAEEGLIAIYFSPQQWVGPLNPDLEDTNPLSISMFNGVGLDGNGDGVADRNNDEDVLYTFARYLESYGFKEEDFRIALWEYYQREQSVNIIYGHANVYKTFKTLDLDDHTFPLPLHHNYSYRSTWGDRRGWGGRRIHEGTDIFANYNVPVMATAYGIVEIKGWNKYGGWRIGVRDLDNVYHYYAHLSGFEKGVEKGTVVAPGDVIGYVGSSGYGKPGTQGKFPPHLHYGMYRDNGYTEWSFDPYPSLKSWERKAYQERKKKKEGHHHHHH | soluble |
| MSLKRRQTNIIGVYLADYGGSFYGELLEGIKKGLALFDYEMIVCSGKKSHLFIPEKMVDGAIILDWTFPTKEIEKFAERGHSIVVLDRTTEHRNIRQVLLDNRGGATQAIEQFVNVGSKKVLLLSGPEKGYDSQERLAVSTRELTRFGIPYEIIQGDFTEPSGYAAAKKILSQPQTEPVDVFAFNDEMAIGVYKYVAETNYQMGKDIRIIGFDNSELGAFVQPRLATIAYSKHRWGMVAAEKIIHLMRGEAAESEHIYTRFIEGESFPSEGHHHHHH | soluble |
| MSLKRSEFPENELWDLTALYKDRQDFLLAIEKALEDIKVFKKNYEGKLNCVEDFTSALMEIEHIYIQMSHIDTYAFMPQTTDFSNEEFAQISQAGSDFATKANVLLSFFNTALANADIKILDSLENNPHFKATIRQAKIQKQHLLSPEVEKALTNLNEVLNTPYDIYTKMRAGDFDMEDFEVDGKTYKNSFVTYENYFQNHENAEIREKSFRSFSKGLRKHQNAAAAAYLAKVKSEKLIADMRGYDSVFDYLLSEQEVDRSMFDRQIDLIMDEFGPVAQRFLKHIADVNGIEKMTFADWKLDIDNELNPEVSINDAYDLVMKSVAPLGKEYSQEVERYQKERWVDFAANANKDSGGYAADPYKVHPYVLMSWTGRMSDVYTLIHEIGHSGQFIFSDNHQSFFNTHMSTYYVEAPSTFNELLLSDYLENQFDTARQKRFALAHRLTDTYFHNFITHLLEAAFQRKVYTLIEEGGTFGAEQLNAIMKEVLTQFWGDAIEIDDDAALTWMRQAHYYMGLYSYTYSAGLVISTAGYLNLKNNPNGAKEWLAFLKSGGSRTPLETALLISADISTDKPLRDTINFLSNTVDQIINYSNLIEQEGHHHHHH | soluble |
| MSLKSALRLYNRASFKASHKVIEEYSTSFSLSTWLLSPRIRNDIRNLYAVVRIADEIVDGTAHAAGCSTAKIEEILDAYEIAVLAAPQQRFNTDLVLQAYGETARRCDFEQEHVIAFFASMRKDLKANTHDPDSFTTYVYGSAEVIGLLCLSVFNQGRTISKKRLEIMQNGARSLGAAFQKINFLRDLAEDQQNLGRFYFPKTSQGTLTKEQKEDLIADIRQDLAIAHDAFPEIPVQARIGVISAYLLFQKLTDRIEATPTADLLRERIRVPLHIKLSTLARATMKGLSMSIYRKNSEGHHHHHH | soluble |
| MSLKSGTLRVWLFQEVNNKPKEKVVDAALADFEKAHADTKVTVEYIPVETRAQRIKAAFNDPKSAPDVVEFGNTDTAGYVKDGGLADISEEFAAWDEAKDADSTARQSVTVDGKVYGAPYFVGVRALYYRTDVFDELGLKAPRTLAELASTAKRVRAAKPDLYGLAVGGAYTYGAMPFIWANGGDIATGKGGSYASAIDSAAAQKGIKAYTSLFGDANCPAAKCAGMTGNDTVTAFASGKAAMAIGGDFSHQAMEAGAVKGKYAVVPLPGVEPGSIAPAFAGGNNIGVLKSTSHRTLAVDLMKRLASKKAQGELFDAMGFLPTFTDVRQQVAAREPFVKPFVDTLAAGTKFVPASPAWATIDSSLVLPTMFQEVVSGKKDVGAAAGDAARKMDDAFGSAGEGHHHHHH | soluble |
| MSLKTFTLPASVLFCFLLLIQGLGAAPPGRPDVFPPPLSSEHNGQVAEDAVSRPKDDGVPEVRAARNPEPQDQGELFQGVDPRALASVLLQALDRPASPPSVPGGSQQGTPEEAAEALMTESVRSQTHSLPAPEIQAPAVAPPRPQTQDRDPEEDDRSEEMEALASLLQELRDFSPSNAKRQQETAAAETETRTHTLTRVNLESPGPERVWRASWGEFQARVPERAPLPPPVPSQFQARMSESAPLPETHQFGEGVSSPKTHLGETLTPLSKAYQSLGGPFPKVRRLEGSFLGGSEAGERLLQQGLAQVEAGRRQAEATRQAAAQEERLADLASDLLLQYLLQGGARQRDLGGRELQETQQERENEREEEAEQERRGGGEDDVGEEDEEAAEAEAEAEEAERARQNALLFAEEEDGEAGAEDKRSQEEAPGHRRKDAEGAEEGGEEDDDDEEMDPQTIDSLIELSTKLHLPADDVVSIIEEVEEKRKRKKNAPPEPVPPPRAAPAPTHVRSPQPPPPAPARDELPDWNEVLPPWDREEDEVFPPGPYHPFPNYIRPRTLQPPASSRRRHFHHALPPARHHPDLEAQARRAQEEADAEERRLQEQEEMENYIEHVLLHRPEGHHHHHH | soluble |
| MSLKTRYVLSCLLLGSALSVSAQKMAVKSNLLSAANGALNAGVEYAFGPKSTFDLSGSIRPWKRTEGYVNKYWLIQPEYRYWTCQKFNGSFWGAYLNGAQFNVGGKKMPFGLFPWLKEHRYAGWLTGGGISYGYHIMLNRHWNIEVSVGVGYEYIDYKKYKCPDVCAELLEKGHYHYFGPSKASLSIVYIFNEGHHHHHH | not soluble |
| MSLKVIDFRFRPNTPEIISGIANSNMFRAACKAIGFEKRQPQPLEQIVEDLDKRGVVLSVISGRDSETTYGSPANNGSVLAFCRAYPERFIGFWGLDPHKGMAAVRELRHAVNELGMRGASIDPYLAHLRPDDARYYPIYAACCDLNVPVFITTAPPPQVAGAVMDYTDPRHVDIVARDFPELRIVMSHGGYPFVNEAIFACLRNANVYMDCSEYEQAPMAEAYIQAMNGIIQDKVVFASAHPFIEQADALEVYARMPLSDEARHKVMYANACKVLGIEGHHHHHH | soluble |
| MSLKVQGYANVVTLPNVTGRVIIVGDIHGCRAQLEDLLRAVSFKQGSDTLVAVGDLVNKGPDSFGVVRLLKRLGAYSVLGNHDAKLLKLVKKLGKKECLKGRDAKSSLAPLAQSIPTDVETYLSQLPHIIRIPAHNVMVAHAGLHPQRPVDRQYEDEVTTMRNLIEKEQEATGGVTLTATEETNDGGKPWASMWRGPETVVFGHDARRGLQEQYKPLAIGLDSRCVYGGRLSAAVFPGGCIISVPGWNGASAAAEGHHHHHH | soluble |
| MSLKVRNLNISLKNNLLLKDINLDIKTGKTLMILGQSGVGKSLLGKALVRLLDSNFTISFDELSFHNSCIFNFNKEELRNFRSKVALVLQDAELSLYPYLDIGNLCHLVLKTHTKLKQKERKDYAFSYFQKLGFENLDRLWHSYANELSLGMARRVSLALALLNQPQILICDEITASLDKENASKIISILEELKNTAALVCITHDLNLVNSLADEILMLEKNSSNLYSLDEFLRYYNAEGHHHHHH | soluble |
| MSLKVSAHNGNSDPSGAVQRRQSFRKSKTEDTVGTGNNGAANGGGGGAAANNNQMLENDLLSKYMGNQSPARQQVKKNLLNGTSGGGESVPAKPKTYDARCYVQNGSINFGKIITDEVLAADYDLVEAAKKMSDFAGTTALIAVIHRTKLIVANVGDSRGVMCDFKGNAIPLSFDHKPQQVREQKRIADAGGFIAFKGVWRVAGILATSRALGDYPLKEKNLVIANPDVLSFDLVDHRPQFLILASDGLWDTFTNEEAVAYVRERLDEPHFGAKSIALQSYSRGSVDNITVLVIVLKNGRYEIGSSSNEGHHHHHH | soluble |
| MSLKWSAIPFQTLYRSIESGEFDFDLFKEVLPDLQNLNLNTDKLKNNASRSQLEKGEIELSDGSTFKVNQEFIFEAISLSDELNLDEIVACELILSGDTTANNGKVQYFLRRQYILQIVSFIVNCFHEDTELYQELIKNGALVSNILSAFKFIHTQLSEIKQQINKAQILENYNALFQQNIKFRRDFLLREYDILSQILYGLVDKGAIMKNKDFILSLLHHVSELDSNDFFIIYYTPAFFHLFASLRVLPDADVKLLHSQFMKDLKDDSIYTKPVKVALIFIFFAYFIGWCKEDPKRRADTMDFKTDVDEPMTSAVELGAIEQILIFAADTSIVEQDKSMELFYDIRSLLERHIPRLIPKQLLDDEKIFSQTTNSTYNPASATDNMSGRGLWNPSYPGMMSTTGTARLNSMPNNVNEYSYTTIVLSDQTQEFFLSSFDDVLQTIITDCAFLLTKIKDAEEDSLLSGEDLTLDDISLKADLERFFLSIYFFYASRPEYSCTFWSDKESNAYGFIEWCSRCNDNLMRSCFYLMVSSLSFGPENALNVYHYFGENSSISWKNIAQCLSDYTKKISNFNSSLHKRQQFSESTHNDIDSTAVALEEGLNEEAVIFLSSLLTLVGSVTYQVDEDVKSSLSKVFSDVLFEFTKINTPLVGAAFKVISNLVPKLESSRTKFWSFLDSLIFKDSSLNYSSESYRNAFTNVLTKYSDVLGFLQLFHNLISIHSRENNSEYMVFGKLAFPTRLGQGYRKVGIWPYFDYIFNDILAHVDQIVDIRNKRAVQLPILKIIYTGLCSFDYSVILNSIPAAANLDALVDCENFFNYVQECPAIPIFNYIFTEKIYKSIFNVVDVGVDQLSIELEGGKNQAELLQLAVKIINKVLDYQETYVEELFPIVKKHGKTDYFLPKNYSLHGLRSFYDAIFFNIPLVAHLGLYVGVDDQILATNSLRILAKLSERSNGSVASLSEGHHHHHH | soluble |
